Measurements reported in patent US20100310573A1 (Kyowa Kirin, published 2010).
Like-named read-outs stand apart in the source and are kept apart here.

Columns and labels:
[1] = molecular target: T1, recombinant human CD4 (catalogue number: 514-CD/CF, manufactured by R&D Systems) (human, UniProt P01730 26-390); experiment: SPR, Biacore T100; antibody captured on anti-human IgG chip, recombinant human CD4 flowed; 1:1 binding model
T1 construct: Bought protein (R&D Systems); also called recombinant CD4
Method: (§1) In order to kinetically analyze the binding activity of anti-CD4 chimeric antibodies KM4045 to KM4049, 6G5-1 and 6G5-P to recombinant human CD4, the binding activity was measured by surface plasmon resonance method (SPR). All of the following manipulations were carried out using a Biacore T100 (manufactured by GE Healthcare Bio-Sciences). The anti-human IgG antibody was immobilized on a CM5 sensor chip (manufactured by GE Healthcare Bio-Sciences) by an amine coupling method using a Human Antibody Capture Kit (manufactured by GE Healthcare Bio-Sciences) in accordance with the protocols attached thereto. An assay sample (anti-CD4 chimeric antibodies KM4045 to KM4049) was added to be captured on the anti-human IgG antibody-immobilized chip to give 100 RU (resonance unit). Thereafter, the recombinant human CD4 (manufactured by R&D) diluted from 2500 ng/mL in five steps was allowed to run at a flow rate of 30 μL/min onto the chip, and the sensorgram corresponding to each concentration was obtained. The analysis was carried out in the 1:1 binding model using an analysis software attached to the apparatus, Biacore T100 Evaluation software (manufactured by Biacore), thereby calculating an association rate constant ka and a dissociation rate constant kd of respective antibodies for human CD4.
The measurement of a binding activity was carried out according to the method described in Example 7(2). The association rate constant ka, the dissociation rate constant kd and the dissociation constant KD (kd/ka) of respective antibodies thus obtained are shown in Table 6.

[2] = molecular target: T1, recombinant human CD4 (catalogue …); experiment: as above; remark: listed apart in the source
Method: as §1
As a result, an association rate constant ka, a dissociation rate constant kd, and a dissociation constant KD (kd/ka) of individual antibodies thus obtained are given in Table 5.

[3] = molecular target: T1, recombinant human CD4 (catalogue …); experiment: SPR, Biacore T100; antibody captured on anti-human IgG chip, recombinant human CD4 flowed; 1:1 binding model; value beyond the maker's measurable limit (1 × 10^-5)
Method: as §1, with “CD4. […]” for “CD4.”

[4] = molecular target: T1, recombinant human CD4 (catalogue …); experiment: SPR, Biacore T100; antibody captured on anti-human IgG chip, recombinant human CD4 flowed; 1:1 binding model; kd beyond the maker's measurable limit
Method: as §1, with “CD4. […]” for “CD4.”

[5] = molecular target: T1, recombinant human CD4 (catalogue …); experiment: Biacore T100
[6] = molecular target: T1, recombinant human CD4 (catalogue …); experiment: SPR, Biacore T100; summary sentence to Table 6

| Binder | Kd [1] [pM] | koff [1] [s⁻¹] | kon [1] [M⁻¹ s⁻¹] | kon [2] [M⁻¹ s⁻¹] | koff [3] [s⁻¹] | Kd [4] [pM] | binding activity relative to the anti-CD4 chimeric antibody KM4045 [5] | Kd [6] [pM] |
| --- | --- | --- | --- | --- | --- | --- | --- | --- |
| anti-CD4 chimeric antibody KM4045 (antibody, V domains shown, Variable regions of rat KM4065 joined to a '113F type' heavy chain constant region and a human kappa constant region; In the 113F type, part of the human IgG1 Fc is substituted with human IgG3 Fc (US2007/0148165); Expressed in FUT8 knockout CHO cells (0% fucose)) VH: EVQLVESGGGLVQPGRSMKLSCAASGFTFSNYGMAWVRQAPTKGLEWVATISYDGSITYYRDSVKGRFTISRDHAKSTLYLQMNSLRSEDTATYYCTREEQYSSWYFDFWGPGIMVTVSS VL: DIVLTQSPALAVSLGQRATISCRASQSVSISSHDLMQWYQQKPGQQPKLLIYDAFNLASGIPVRFSGSGSGTDFTLTIDPVQADDIATYYCQQSKDDPYTFGAGTKLELK | < 18.4 | < 1e-05 | 541000 | 360000 | < 1e-05 | ≤ 0.0824 |  |  |
| anti-CD4 humanized antibody HV4LV0 (antibody, V domains shown, Expressed from the humanized antibody expression vector pKANTEX93) VH: EVQLVESGGGLVQPGRSMRLSCAASGFTFSNYGMAWVRQAPGKGLEWVATISYDGSITYYRDSVKGRFTISRDNSKNTLYLQMNSLRAEDTATYYCTREEQYSSWYFDFWGQGILVTVSS VL: DIQLTQSPSSLSASVGDRVTITCRASQSVSISSHDLMQWYQQKPGKAPKLLIYDAFNLASGVPSRFSGSGSGTDFTLTISSLQPEDFATYYCQQSKDDPYTFGQGTKLEIK | < 12.6 | < 1e-05 | 791000 |  |  |  | 0.5 fold of KM4045 | ≤ 100 |
| anti-CD4 humanized antibody HV4LV6 (antibody, V domains shown, Expressed from the humanized antibody expression vector pKANTEX93) VH: EVQLVESGGGLVQPGRSMRLSCAASGFTFSNYGMAWVRQAPGKGLEWVATISYDGSITYYRDSVKGRFTISRDNSKNTLYLQMNSLRAEDTATYYCTREEQYSSWYFDFWGQGILVTVSS VL: DIQLTQSPSSLSVSLGDRATITCRASQSVSISSHDLMQWYQQKPGKQPKLLIYDAFNLASGIPSRFSGSGSGTDFTLTISSVQPEDFATYYCQQSKDDPYTFGQGTKLEIK | < 24.8 | < 1e-05 | 403000 |  |  |  | 0.5 fold of KM4045 | ≤ 100 |
